Test results taken from the supplement of paper PMC10567573.

B1: ZNF449 (parent)
chain: YRHQRLHTGERPYECTVCKKRFTR

Variants of: B1
Assay: protein stability index of a GFP-peptide fusion (GPS, HEK-293T) (PSI 1-6); higher = more stable
Conditions: c terminus: a fixed tail appended
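Further: lentivirally expressed fusions sorted by FACS into six bins by GFP to DsRed ratio, PSI derived from sequencing read proportions per bin multiplied by bin number.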

Protein stability index: each site, then its substitutions
P12: V 2.87; Y 2.62; L 2.22; K 2.62; W 2.44; Q 2.2; T 2.88; M 2.32; H 2.26; S 2.34; G 2.21; N 2.71; E 2.38; R 2.98; F 2.19; A 2.54; I 2.1; D 2.83; C 2.37
Y13: D 2.11; L 2.08; C 3.74; H 2.69; R 2.32; Q 2.67; K 2.25; M 2.69; G 2.55; P 2.35; I 2.09; T 2.51; S 2.08; V 2.21; F 2.86; W 2.44; A 2.43; E 2.63; N 2.04
C15: P 3.4; E 3.35; V 2.85; A 3.02; R 3.53; Q 3.91; I 2.55; Y 3.07; T 2.88; K 3.42; G 3.7; N 3.44; W 3.07; L 3.11; D 3.51; H 3.33; S 3.02; F 3.02; M 2.98
T16: D 2.52; P 2.22; I 2.34; F 2.14; C 2.09; Y 2.75; V 2.07; M 1.98; R 2.51; H 2.24; K 2.78; E 2.25; S 2.39; L 2.08; A 2.12; N 2.46; W 2.03; G 2.33; Q 2.27
L6: I 2.37; N 2.63; R 2.7; P 2.4; G 2.61; C 3.06; H 2.73; E 2.09; Q 2.38; F 2.17; A 2.77; V 2.17; W 2.38; T 2.51; Y 2.74; M 2.37; S 2.38; K 2.34; D 2.37
V17: Y 2.2; I 2.25; S 2.5; W 2.28; G 2.63; D 3.07; L 2.56; Q 2.47; H 2.64; C 2.65; N 2.87; A 2.48; P 3.17; M 2.21; T 2.85; K 3.69; E 2.37; F 2.37; R 2.55
K19: E 2.01; C 2.12; H 1.55; I 2.58; A 2.68; D 1.96; F 2.33; G 2.15
E10: N 2.6; K 2.15; M 1.91; G 2.24; F 2.35; H 2.88; S 2.62; I 2.32; W 2.34; P 2.58; Q 2.54; R 2.81; T 2.48; D 2.28; V 2.4; A 2.38; Y 3.09; C 2.57; L 2.13
R5: H 3; C 3.51; M 2.25; W 2.29; K 2.18; F 2.49; Y 2.2; Q 2.61; T 1.69; E 1.91; N 2.21; A 2.08; P 2.08; G 2.31; D 2.06; I 1.89; S 2.24; V 2.19; L 2.15
Q4: E 2.3; I 1.93; K 2.39; H 3.41; W 2.11; V 2.13; M 1.73; L 1.78; S 2.35; C 2.99; Y 1.78; D 2.22; N 2.24; A 2.44; F 1.88; R 2.36; T 2.64; P 2.03; G 2.34
H3: Q 2.21; T 2.56; W 1.65; L 1.52; P 2.68; C 2.4; I 2.12; V 2.03; D 2.15; K 2.05; F 1.66; N 2.69; S 2.35; A 1.89; M 2.14; G 2.28; R 2.44; E 1.83; Y 1.81
T8: I 2.41; W 2.39; E 2.24; K 2.19; D 2.27; V 2.29; G 2.38; P 2.52; R 2.87; F 2.31; C 2.4; N 2.56; S 2.71; H 2.7; L 1.97; A 2.32; M 2.83; Y 2.22; Q 2.59
H7: M 1.97; G 2.14; K 2.75; F 1.46; V 2.18; I 2.16; D 1.92; A 2.17; C 2.65; T 2.35; N 2.64; L 2.15; Y 1.61; S 2.05; E 2.09; P 1.84; W 3.01; R 2.24; Q 2.53
E14: V 2.84; L 2.38; Q 2.54; G 2.42; S 2.69; K 2.97; D 2.23; A 2.5; N 2.7; P 2.93; Y 2.39; R 2.6; M 2.58; W 2.59; T 2.44; F 2.11; H 2.52; I 2.77; C 2.57
R2: Y 2.38; T 1.8; C 2.66; A 1.81; N 1.56; M 2.33; E 2.65; F 1.88; Q 2.12; V 3.09; W 1.57; S 2.76; K 2.32; D 2.48; P 1.63; G 2.92; I 2.65; L 2.16
G9: A 2.26; S 2.33; L 2.21; T 2.23; W 1.91; M 2.25; K 2.42; N 2.54; I 2.4; P 2.04; Y 2.1; H 2.81; Q 2.1; V 2.07; D 2.35; F 2.01; E 2.31; R 2.45; C 3.86
Y1: V 2.45; T 2.65; S 3.05; W 1.97
R11: W 2.2; F 2.68; V 1.85; I 2.22; Q 2.48; T 2.1; S 2.43; A 2.26; N 2.1; C 3.21; P 2.33; D 2.67; E 2.08; L 2.09; G 2.71; Y 2.76; K 2.59; M 1.79; H 2.43
C18: Q 3.27; I 3.15; H 3.48; E 3.48; M 2.56; A 3.39; D 3.24; K 3.77; V 3.48; S 3.38; G 3.37; F 2.38; N 3.43; P 3.45; Y 2.96; R 3.65; W 2.21; T 3.6; L 2.6
